Literature values, collected in publication PMC10003451, “Phosphorylated Peptide Derived from the Myosin Phosphatase Target Subunit Is a Novel Inhibitor of Protein Phosphatase-1” (International Journal of Molecular Sciences, 2023).

B1: His-tagged MYPT1^514−963: C-terminal fragment of a recombinant His-tagged MYPT1 phosphorylated at Thr654 (protein, UniProt O14974 514-963, looked up, fragment)
chain: KENRDSSSLRTSSSYTRRKWEDDLKKNSSVNEGSTYHKSCSFGRRQDDLISSSVPSTTSTPTVTSAAGLQKSLLSSTSTTTKITTGSSSAGTQSSTSNRLWAEDSTEKEKDSVPTAVTIPVAPTVVNAAASTTTLTTTTAGTVSSTTEVRERRRSYLTPVRDEESESQRKARSRQARQSRRSTQGVTLTDLQEAEKTIGRSRSTRTREQENEEKEKEEKEKQDKEKQEEKKESETSREDEYKQKYSRTYDETYQRYRPVSTSSSTTPSSSLSTMSSSLYASSQLNRPNSLVGITSAYSRGITKENEREGEKREEEKEGEDKSQPKSIRERRRPREKRRSTGVSFWTQDSDENEQEQQSDTEEGSNKKETQTDSISRYETSSTSAGDRYDSLLGRSGSYSYLEERKPYSSRLEKDDSTDFKKLYEQILAENEKLKAQLHDTNMELTDLKLQ
modifications: His tag; phosphorylated Thr654
B2: GST-MYPT1^654−880: GST-MYPT1^654−880 fragment phosphorylated at Thr696 (protein, UniProt O14974 654-880, looked up, fragment)
chain: GTVSSTTEVRERRRSYLTPVRDEESESQRKARSRQARQSRRSTQGVTLTDLQEAEKTIGRSRSTRTREQENEEKEKEEKEKQDKEKQEEKKESETSREDEYKQKYSRTYDETYQRYRPVSTSSSTTPSSSLSTMSSSLYASSQLNRPNSLVGITSAYSRGITKENEREGEKREEEKEGEDKSQPKSIRERRRPREKRRSTGVSFWTQDSDENEQEQQSDTEEGSNKK
modifications: GST fusion; phosphorylated Thr696
notes: GST-MYPT1^654−880 fragment phosphorylated at Thr696

What was measured:
[1] = molecular target: T1, PP1c (Homo sapiens, UniProt P62136); parameters: method as in 2 sources, ref 30 = [30]; PMID 12030846; doi:10.1042/bj20020401; 30. Murányi A. MacDonald J.A. Deng J.T. Wilson D.P. Haystead T.A. Walsh M.P. Erdődi F. Kiss E. Wu Y. Hartshorne D.J. Phosphorylation of the myosin phosphatase target subunit by integrin-linked kinase ||| ref 31 = [31]; PMID 19531490; doi:10.1074/jbc.M109.019729; 31. Khromov A. Choudhury N. Stevenson A.S. Somlyo A.V. Eto M. Phosphorylation-dependent autoinhibition of myosin light chain phosphatase accounts for Ca 2+ sensitization force of smooth muscle contrac
T1 construct: made in house; host or cells: E. coli
T1 sequence (P62136 whole entry): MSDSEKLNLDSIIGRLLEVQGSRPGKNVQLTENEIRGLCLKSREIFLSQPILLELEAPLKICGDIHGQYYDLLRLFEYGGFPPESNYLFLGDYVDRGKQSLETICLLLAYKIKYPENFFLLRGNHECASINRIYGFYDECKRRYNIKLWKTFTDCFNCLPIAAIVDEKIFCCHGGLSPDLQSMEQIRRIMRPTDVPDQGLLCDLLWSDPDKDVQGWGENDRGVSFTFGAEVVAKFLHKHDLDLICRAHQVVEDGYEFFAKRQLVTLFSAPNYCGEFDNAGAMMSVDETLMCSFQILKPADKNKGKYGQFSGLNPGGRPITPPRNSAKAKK

[2] = system: MP holoenzyme; parameters: method as in PMID 19531490; conditions: phosphorylated at Thr696

Molecule | IC50 ([1]; phosphorylated at Thr654 (corresponding to Thr696 in the longer MYPT1 isoform), read-out: IC50, inhibition of PP1c (literature)) | effect on PP1c (literature) ([1]; phosphorylated at Thr696) | inhibition of MP holoenzyme (literature) [2]
B1 | ~100 nM |  | 
B2 |  | without effect on PP1c | inhibited MP holoenzyme potently in nanomolar concentrations
